According to US10562947B2, “Compositions and methods for preventing or treating diseases, conditions or processes characterized by aberrant fibroblast proliferation and extracellular matrix deposition” (MOERAE MATRIX, INC., priority 2011, dated 2020):

How the values were obtained:
Experiment in all cases: Kinase Profiling Assay
Format in all cases: biochemical
Settings in all cases: 100 μM peptide
PRK2(h) = target: T1, PRK2(h) (Homo sapiens, UniProt Q16513)
T1 construct: purchased Millipore (IC50 Profiler Express service)
T1 sequence (Q16513 whole entry): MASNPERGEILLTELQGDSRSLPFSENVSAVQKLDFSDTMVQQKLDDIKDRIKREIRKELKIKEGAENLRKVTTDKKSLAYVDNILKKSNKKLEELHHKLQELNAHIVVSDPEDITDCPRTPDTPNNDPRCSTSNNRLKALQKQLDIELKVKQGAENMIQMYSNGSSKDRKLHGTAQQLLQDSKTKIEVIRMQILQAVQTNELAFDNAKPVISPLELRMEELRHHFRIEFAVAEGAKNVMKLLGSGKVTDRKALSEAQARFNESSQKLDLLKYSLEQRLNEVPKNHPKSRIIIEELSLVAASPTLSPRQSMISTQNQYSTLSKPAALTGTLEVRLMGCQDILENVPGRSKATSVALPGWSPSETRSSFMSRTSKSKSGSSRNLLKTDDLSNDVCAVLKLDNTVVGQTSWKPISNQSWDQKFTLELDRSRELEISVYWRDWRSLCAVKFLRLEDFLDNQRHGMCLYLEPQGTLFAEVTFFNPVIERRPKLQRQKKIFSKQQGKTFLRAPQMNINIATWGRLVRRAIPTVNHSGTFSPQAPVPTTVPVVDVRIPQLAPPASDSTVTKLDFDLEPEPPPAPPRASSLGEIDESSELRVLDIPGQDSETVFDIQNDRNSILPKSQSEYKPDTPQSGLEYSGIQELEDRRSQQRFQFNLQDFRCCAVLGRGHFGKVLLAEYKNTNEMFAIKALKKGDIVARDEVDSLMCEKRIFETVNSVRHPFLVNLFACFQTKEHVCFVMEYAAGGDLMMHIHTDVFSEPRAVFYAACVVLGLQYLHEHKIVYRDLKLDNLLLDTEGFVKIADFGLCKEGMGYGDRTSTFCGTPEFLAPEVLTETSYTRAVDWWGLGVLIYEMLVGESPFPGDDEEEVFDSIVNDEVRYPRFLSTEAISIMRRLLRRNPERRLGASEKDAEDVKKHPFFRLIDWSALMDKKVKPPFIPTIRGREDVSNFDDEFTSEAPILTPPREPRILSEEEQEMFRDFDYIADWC
In short: (§1)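 Specificity of the MK2-directed peptides is examined by measuring activity of 266 human kinases, every determination performed in duplicate.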

EphA1(h) = target: T2, EphA1(h) (Homo sapiens, UniProt P21709)
T2 sequence (P21709 26-976): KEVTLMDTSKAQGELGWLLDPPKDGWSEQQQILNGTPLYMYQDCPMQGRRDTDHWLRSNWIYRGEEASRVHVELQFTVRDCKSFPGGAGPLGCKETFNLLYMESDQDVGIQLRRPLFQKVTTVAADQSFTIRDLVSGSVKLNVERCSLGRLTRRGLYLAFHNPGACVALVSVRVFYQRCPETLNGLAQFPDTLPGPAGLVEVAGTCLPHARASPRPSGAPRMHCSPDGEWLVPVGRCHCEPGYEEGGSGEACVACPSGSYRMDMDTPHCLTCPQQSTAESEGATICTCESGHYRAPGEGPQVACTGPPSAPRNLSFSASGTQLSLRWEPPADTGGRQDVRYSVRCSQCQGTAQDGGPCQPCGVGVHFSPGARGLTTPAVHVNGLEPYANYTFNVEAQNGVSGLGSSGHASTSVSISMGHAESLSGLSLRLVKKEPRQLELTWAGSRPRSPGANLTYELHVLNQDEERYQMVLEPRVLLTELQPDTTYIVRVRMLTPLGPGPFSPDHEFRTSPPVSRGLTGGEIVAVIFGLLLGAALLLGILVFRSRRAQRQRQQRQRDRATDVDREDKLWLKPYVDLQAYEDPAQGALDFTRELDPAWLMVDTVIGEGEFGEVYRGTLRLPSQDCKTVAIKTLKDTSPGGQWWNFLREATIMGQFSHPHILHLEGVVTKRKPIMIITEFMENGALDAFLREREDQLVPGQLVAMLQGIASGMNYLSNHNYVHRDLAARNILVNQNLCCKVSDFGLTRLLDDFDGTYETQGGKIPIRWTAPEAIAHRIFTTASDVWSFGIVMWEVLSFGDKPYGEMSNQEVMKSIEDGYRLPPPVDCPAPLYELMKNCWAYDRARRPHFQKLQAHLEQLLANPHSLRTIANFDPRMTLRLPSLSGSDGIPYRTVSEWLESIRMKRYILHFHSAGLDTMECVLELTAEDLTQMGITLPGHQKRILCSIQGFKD
In short: as §1

CDK6/cyclinD3(h) = CDK6/cyclinD3(h) (Homo sapiens, UniProt Q00534)
Sequence of CDK6/cyclinD3(h) (Q00534 whole entry): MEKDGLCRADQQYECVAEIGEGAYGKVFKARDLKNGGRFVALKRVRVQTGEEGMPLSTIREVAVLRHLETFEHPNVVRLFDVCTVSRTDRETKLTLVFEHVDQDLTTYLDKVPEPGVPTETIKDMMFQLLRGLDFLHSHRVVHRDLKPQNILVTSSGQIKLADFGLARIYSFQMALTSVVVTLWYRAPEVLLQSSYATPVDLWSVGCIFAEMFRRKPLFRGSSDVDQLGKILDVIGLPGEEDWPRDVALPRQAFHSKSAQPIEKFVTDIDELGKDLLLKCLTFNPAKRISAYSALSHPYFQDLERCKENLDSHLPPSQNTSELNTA
Sequence of CDK6/cyclinD3(h) (P30281 whole entry partner): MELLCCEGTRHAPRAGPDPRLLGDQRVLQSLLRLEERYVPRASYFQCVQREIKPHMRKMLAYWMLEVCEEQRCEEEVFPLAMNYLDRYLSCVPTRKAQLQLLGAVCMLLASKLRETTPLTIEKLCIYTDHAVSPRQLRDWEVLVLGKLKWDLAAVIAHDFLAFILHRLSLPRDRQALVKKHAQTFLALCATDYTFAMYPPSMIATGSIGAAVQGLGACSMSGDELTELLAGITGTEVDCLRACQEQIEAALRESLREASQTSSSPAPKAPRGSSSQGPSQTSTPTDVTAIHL
In short: as §1

Flt3(D835Y)(h) = Flt3(D835Y)(h) (Homo sapiens, UniProt P36888, D835Y)
In short: as §1

MARK1(h) = MARK1(h) (Homo sapiens, UniProt Q9P0L2)
Sequence of MARK1(h) (Q9P0L2 whole entry): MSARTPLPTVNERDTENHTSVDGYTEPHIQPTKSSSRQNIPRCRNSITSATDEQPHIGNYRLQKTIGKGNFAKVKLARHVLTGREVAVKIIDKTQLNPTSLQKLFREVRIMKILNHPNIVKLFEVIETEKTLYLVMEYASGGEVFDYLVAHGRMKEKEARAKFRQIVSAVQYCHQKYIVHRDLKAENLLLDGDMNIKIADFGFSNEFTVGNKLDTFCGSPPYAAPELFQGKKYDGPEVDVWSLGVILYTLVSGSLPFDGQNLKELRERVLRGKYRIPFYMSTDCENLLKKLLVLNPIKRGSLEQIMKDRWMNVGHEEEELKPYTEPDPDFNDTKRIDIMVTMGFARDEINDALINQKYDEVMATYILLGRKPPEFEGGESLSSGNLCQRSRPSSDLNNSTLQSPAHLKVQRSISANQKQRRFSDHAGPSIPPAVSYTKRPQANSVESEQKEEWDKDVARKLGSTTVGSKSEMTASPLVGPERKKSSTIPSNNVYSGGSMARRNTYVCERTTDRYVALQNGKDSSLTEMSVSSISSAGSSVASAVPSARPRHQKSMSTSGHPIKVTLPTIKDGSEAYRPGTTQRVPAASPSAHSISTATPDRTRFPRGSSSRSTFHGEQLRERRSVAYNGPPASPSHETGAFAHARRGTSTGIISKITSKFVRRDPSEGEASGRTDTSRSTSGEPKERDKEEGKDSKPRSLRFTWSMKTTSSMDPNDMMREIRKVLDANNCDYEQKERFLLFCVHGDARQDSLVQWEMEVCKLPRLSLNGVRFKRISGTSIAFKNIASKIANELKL
In short: as §1

MuSK(h) = target: T3, MuSK(h) (Homo sapiens, UniProt O15146)
T3 sequence (O15146 24-869): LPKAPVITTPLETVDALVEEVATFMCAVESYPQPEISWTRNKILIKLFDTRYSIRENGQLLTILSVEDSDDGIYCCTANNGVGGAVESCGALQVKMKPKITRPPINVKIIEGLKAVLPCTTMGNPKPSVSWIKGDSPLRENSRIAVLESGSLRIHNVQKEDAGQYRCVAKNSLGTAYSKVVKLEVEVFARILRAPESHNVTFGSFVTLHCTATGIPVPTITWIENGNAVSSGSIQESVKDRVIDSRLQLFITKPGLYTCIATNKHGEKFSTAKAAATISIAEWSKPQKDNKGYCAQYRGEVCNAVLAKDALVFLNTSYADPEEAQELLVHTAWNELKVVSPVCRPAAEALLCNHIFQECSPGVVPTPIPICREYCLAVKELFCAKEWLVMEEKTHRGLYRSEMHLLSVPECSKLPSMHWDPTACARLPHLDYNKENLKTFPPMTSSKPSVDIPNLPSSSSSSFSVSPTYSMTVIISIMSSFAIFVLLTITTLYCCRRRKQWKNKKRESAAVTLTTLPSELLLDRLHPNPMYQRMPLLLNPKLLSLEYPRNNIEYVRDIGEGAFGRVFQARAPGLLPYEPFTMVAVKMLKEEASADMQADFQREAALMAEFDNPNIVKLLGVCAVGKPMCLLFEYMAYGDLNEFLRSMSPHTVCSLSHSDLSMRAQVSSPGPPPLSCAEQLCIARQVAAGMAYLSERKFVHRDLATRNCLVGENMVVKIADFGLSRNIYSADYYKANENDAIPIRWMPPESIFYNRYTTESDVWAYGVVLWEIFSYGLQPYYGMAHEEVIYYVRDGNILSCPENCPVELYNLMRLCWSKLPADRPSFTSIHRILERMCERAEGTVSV
In short: as §1

GRK7(h) = target: T4, GRK7(h) (Homo sapiens, UniProt Q8WTQ7)
T4 construct: purchased Millipore
T4 sequence (Q8WTQ7 1-553): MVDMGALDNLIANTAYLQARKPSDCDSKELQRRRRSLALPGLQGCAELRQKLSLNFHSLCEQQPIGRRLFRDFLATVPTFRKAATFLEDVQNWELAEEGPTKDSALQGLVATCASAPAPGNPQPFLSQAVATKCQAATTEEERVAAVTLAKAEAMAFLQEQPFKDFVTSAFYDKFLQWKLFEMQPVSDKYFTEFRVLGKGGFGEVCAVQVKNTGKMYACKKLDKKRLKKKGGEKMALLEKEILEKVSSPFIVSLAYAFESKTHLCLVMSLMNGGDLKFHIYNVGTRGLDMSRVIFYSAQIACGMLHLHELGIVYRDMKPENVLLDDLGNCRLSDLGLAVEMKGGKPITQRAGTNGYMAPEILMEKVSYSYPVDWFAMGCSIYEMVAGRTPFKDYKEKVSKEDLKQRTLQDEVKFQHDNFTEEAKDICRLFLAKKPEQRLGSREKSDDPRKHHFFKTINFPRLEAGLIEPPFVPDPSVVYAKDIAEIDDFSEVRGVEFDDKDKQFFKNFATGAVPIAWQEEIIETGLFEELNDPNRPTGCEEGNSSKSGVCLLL
In short: as §1

JNK3(h) = JNK3(h) (Homo sapiens, UniProt P53779)
Sequence of JNK3(h) (P53779 whole entry): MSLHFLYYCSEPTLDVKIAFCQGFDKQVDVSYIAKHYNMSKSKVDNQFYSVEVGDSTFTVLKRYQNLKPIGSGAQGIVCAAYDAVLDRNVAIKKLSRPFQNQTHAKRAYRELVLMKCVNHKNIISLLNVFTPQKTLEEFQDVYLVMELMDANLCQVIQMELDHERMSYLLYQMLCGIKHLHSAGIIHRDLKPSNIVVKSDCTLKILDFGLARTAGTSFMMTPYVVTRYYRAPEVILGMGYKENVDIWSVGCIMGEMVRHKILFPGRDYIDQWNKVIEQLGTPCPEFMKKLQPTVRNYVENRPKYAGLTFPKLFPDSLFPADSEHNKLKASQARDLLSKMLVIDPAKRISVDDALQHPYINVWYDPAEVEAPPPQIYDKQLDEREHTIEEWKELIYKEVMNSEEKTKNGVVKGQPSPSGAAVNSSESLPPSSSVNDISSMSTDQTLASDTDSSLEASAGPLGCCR
In short: as §1

| Sequence | PRK2(h) % activity (PRK2(h)) | EphA1(h) % activity (EphA1(h)) | CDK6/cyclinD3(h) % activity (CDK6/cyclinD3(h)) | Flt3(D835Y)(h) % activity (Flt3(D835Y)(h)) | MARK1(h) % activity (MARK1(h)) | MuSK(h) % activity (MuSK(h)) | GRK7(h) % activity (GRK7(h)) | JNK3(h) % activity (JNK3(h)) |
| --- | --- | --- | --- | --- | --- | --- | --- | --- |
| KAFAKLAARLYRKALARQLGVAA [MMI-0400] | 27% | 61% | 85% | 71% | 120% | 93% | 100% | 70% |
| YARAAARQARAKALNRQLGVA (Mammalian) [MMI-0200] | 74% | – | 100% | – | – | – | 124% | 90% |
| FAKLAARLYRKALARQLGVAA [MMI-0300] | 33% | 73% | 86% | 80% | 132% | 93% | 122% | 89% |
| HRRIKAWLKKIKALARQLGVAA (Mammalian) [MMI-0500] | 7% | 40% | 23% | 65% | 110% | 27% | 93% | 171% |
